PMC7754472, “RPW8.1 enhances the ethylene‐signaling pathway to feedback‐attenuate its mediated cell death and disease resistance in Arabidopsis”

B1: OBS1 (dsDNA)
DNA 1: ACGTAATTCAATAATATTCTACGTAATTTAATACTCACGACAACTTGCATAT
DNA 2: ATATGCAAGTTGTCGTGAGTATTAAATTACGTAGAATATTATTGAATTACGT
B2: OBS2 (dsDNA)
DNA 1: TTGCATATAGATCCAACGATCTCCTCTTACCTAGAAAAAGAGAGAGTTGTTGACCCGTA
DNA 2: TACGGGTCAACAACTCTCTCTTTTTCTAGGTAAGAGGAGATCGTTGGATCTATATGCAA
B3: mutant competitor IV (OBS2, unnamed motif and TCT-motif mutant) (dsDNA)
DNA 1: TTGCATATAGATCCAACGATCTCGACTTACCTAGAAAAAGAGAGAGTTGTTGACCCGTA
DNA 2: TACGGGTCAACAACTCTCTCTTTTTCTAGGTAAGTCGAGATCGTTGGATCTATATGCAA
B4: mutant competitor V (OBS1, T/A-rich motif mutant) (dsDNA)
DNA 1: ACGTAATTCAAGAAGATTCTACGTAATTCAAGACTCACGACAACTTGCATAT
DNA 2: ATATGCAAGTTGTCGTGAGTCTTGAATTACGTAGAATCTTCTTGAATTACGT
B5: OBS3 (dsDNA)
DNA 1: TATGAGTCAATCTCTTGAATTGTCTTCATATAATTAAAACCACTCGTTAACTTGTTAA
DNA 2: TTAACAAGTTAACGAGTGGTTTTAATTATATGAAGACAATTCAAGAGATTGACTCATA
B6: OBS4 (dsDNA)
DNA 1: ACATAAAACTATTTAATATGGTTCCATCCTTCCATGTACATAGATTCCTCT
DNA 2: AGAGGAATCTATGTACATGGAAGGATGGAACCATATTAAATAGTTTTATGT
B7: OBS5 (dsDNA)
DNA 1: ATGTACATAGATTCCTCTATATTCACCTCGAGAGCTAAACAACTACTTTCAAAAA
DNA 2: TTTTTGAAAGTAGTTGTTTAGCTCTCGAGGTGAATATAGAGGAATCTATGTACAT
B8: mutant competitor I (OBS2, T/A-rich motif mutant) (dsDNA)
DNA 1: TTGCAGACAGATCCAACGATCTCCTCTTACCTCGAAAAAGAGAGAGTTGTTGACCCGTA
DNA 2: TACGGGTCAACAACTCTCTCTTTTTCGAGGTAAGAGGAGATCGTTGGATCTGTCTGCAA
B9: mutant competitor II (OBS2, GAG-motif mutant) (dsDNA)
DNA 1: TTGCATATAGATCCAACGATCTCCTCTTACCTAGAAAAAGACACAGTTGTTGACCCGTA
DNA 2: TACGGGTCAACAACTGTGTCTTTTTCTAGGTAAGAGGAGATCGTTGGATCTATATGCAA
B10: mutant competitor III (OBS2, BOX-W1 mutant) (dsDNA)
DNA 1: TTGCATATAGATCCAACGATCTCCTCTTACCTAGAAAAAGAGAGAGTTGTACACCCGTA
DNA 2: TACGGGTGTACAACTCTCTCTTTTTCTAGGTAAGAGGAGATCGTTGGATCTATATGCAA

Legend:
GST-ORA59 [1] = biological target: T1, GST-ORA59 (Arabidopsis thaliana, UniProt Q9LND1 1-244); test: EMSA; Chemiluminescent EMSA kit (Beyotime) EMSA/Gel-Shift binding buffer; salt, pH and temperature not stated; conditions: protein: recombinant, tags: N-terminal GST (pGEX), blunt
GST-ORA59 [2] = biological target: T1, GST-ORA59; test: competition; 5-, 25-, 50-fold excess vs biotin-OBS2; Chemiluminescent EMSA kit (Beyotime) EMSA/Gel-Shift binding buffer; salt, pH and temperature not stated; conditions: protein: recombinant; tags: N-terminal GST (pGEX); blunt
GST-ORA59 [3] = biological target: T1, GST-ORA59; test: competition; 5-, 25-, 50-fold excess vs biotin-OBS1; Chemiluminescent EMSA kit (Beyotime) EMSA/Gel-Shift binding buffer; salt, pH and temperature not stated; conditions: protein: recombinant; tags: N-terminal GST (pGEX); blunt

T1 sequence (Q9LND1 whole entry): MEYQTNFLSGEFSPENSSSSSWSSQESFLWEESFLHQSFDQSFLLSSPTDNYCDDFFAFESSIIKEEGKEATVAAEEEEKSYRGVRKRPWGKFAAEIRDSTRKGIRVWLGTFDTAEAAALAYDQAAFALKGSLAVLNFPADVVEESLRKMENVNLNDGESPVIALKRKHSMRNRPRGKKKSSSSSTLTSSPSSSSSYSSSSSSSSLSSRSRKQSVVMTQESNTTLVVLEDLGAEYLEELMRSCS

| Binder | binding result (GST-ORA59 [2]) | binding result (GST-ORA59 [1]; label: 3' biotin) | also measured |
| --- | --- | --- | --- |
| B1 | – | – | binding result (GST-ORA59 [1]; label: 3' biotin (probe)): binds |
| B2 | – | – | binding result (GST-ORA59 [1]; label: 3' biotin (probe)): binds |
| B3 | binds | – | – |
| B4 | – | – | binding result (GST-ORA59 [3]): no binding |
| B5 | – | binds | – |
| B6 | – | binds | – |
| B7 | – | binds | – |
| B8 | no binding | – | – |
| B9 | binds | – | – |
| B10 | binds | – | – |
